Assay results published in publication doi:10.1101/2023.08.10.552896.
Where two headings read alike, the source gives them in different places.

Tests used:
[1] = molecular target: Transthyretin, wild type, first purification protocol (TTR1st) (human (by the printed accession P02766)) (UniProt P02766); assay: SEC
[2] = molecular target: Transthyretin, wild type, first purification protocol (TTR1st) (human (by the printed accession P02766)) (UniProt P02766); assay: SEC; remark: listed apart in the source

percent of the sample as oligomers (oTTR) [1]: 4% | percent of the sample as oligomers (oTTR) [2]: 7% | percent of the sample as tetramer [2]: 93% | stoichiometry N [2]: 4
Substance: Transthyretin, wild type, first purification protocol (TTR1st) (from UniProt P02766 21-147) (enzyme)
